This data set concerns Escherichia coli TOP10. Nature of the data set: shrunken log2 fold change of peptide-encoding DNA abundance (4.5 h post-induction vs induction); higher = less antimicrobial activity (less host growth inhibition). The following applies: time post-induction: 4.5 h; library: site-saturation at positions 5, 18, 19, 20.
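Further: peptides expressed intracellularly from a pBAD plasmid library in pooled LB shake-flask culture, induced with 0.3% L-arabinose, DNA abundance read by NGS, three biological replicates, DESeq2 with apeglm shrinkage.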

For the sequence RRIRHRPPRLPRPRPRPILWPRP, the “shrunken log2 fold change” value is -0.0569.

As for RRIRKRPPRLPRPRPRPRFNPRP, the “shrunken log2 fold change” value turned out to be 0.0969.

As for RRIRSRPPRLPRPRPRPLQFPRP, the “shrunken log2 fold change” value came out at 0.0849.

Consider RRIRPRPPRLPRPRPRPWNAPRP, for which the “shrunken log2 fold change” value is -0.118.

With RRIRRRPPRLPRPRPRPTKQPRP, the “shrunken log2 fold change” value is -0.0752.

Take RRIRLRPPRLPRPRPRPTRHPRP: the “shrunken log2 fold change” value worked out at 0.156.

On to RRIRSRPPRLPRPRPRPIRDPRP, for which the “shrunken log2 fold change” value was found to be 0.156.

Turning to RRIRMRPPRLPRPRPRPLSDPRP, the “shrunken log2 fold change” value was found to be 0.861.

Consider RRIRPRPPRLPRPRPRPKPVPRP, for which the “shrunken log2 fold change” value came out at 0.154.

On to RRIRRRPPRLPRPRPRPWTKPRP, for which the “shrunken log2 fold change” value is 0.124.

In the case of RRIRYRPPRLPRPRPRPHICPRP, the “shrunken log2 fold change” value is -0.0358.

In the case of RRIRMRPPRLPRPRPRPMYAPRP, the “shrunken log2 fold change” value turned out to be 0.0486.

Take RRIRKRPPRLPRPRPRPPIHPRP: the “shrunken log2 fold change” value is 0.327.

As for RRIRYRPPRLPRPRPRPCFWPRP, the “shrunken log2 fold change” value was -0.136.

Take RRIRGRPPRLPRPRPRPTSQPRP: the “shrunken log2 fold change” value came to 0.87.

For the sequence RRIRIRPPRLPRPRPRPGIGPRP, the “shrunken log2 fold change” value turned out to be 0.127.

Turning to RRIRWRPPRLPRPRPRPTYIPRP, the “shrunken log2 fold change” value is -0.428.

For RRIRIRPPRLPRPRPRPPPMPRP, the “shrunken log2 fold change” value amounted to 0.377.

As for RRIRDRPPRLPRPRPRPIYVPRP, the “shrunken log2 fold change” value is -0.0326.

Turning to RRIRIRPPRLPRPRPRPRGRPRP, the “shrunken log2 fold change” value amounted to 0.229.

For the sequence RRIRGRPPRLPRPRPRPGMRPRP, the “shrunken log2 fold change” value worked out at 1.68.

Consider RRIRKRPPRLPRPRPRPDDLPRP, for which the “shrunken log2 fold change” value worked out at 0.0928.

Turning to RRIRIRPPRLPRPRPRPCFKPRP, the “shrunken log2 fold change” value was -1.04.

RRIRCRPPRLPRPRPRPHDSPRP: the “shrunken log2 fold change” value was -0.298.

Take RRIRTRPPRLPRPRPRPVCCPRP: the “shrunken log2 fold change” value was -0.254.

On to RRIRHRPPRLPRPRPRPAPNPRP, for which the “shrunken log2 fold change” value came to 0.497.

Turning to RRIRCRPPRLPRPRPRPQWPPRP, the “shrunken log2 fold change” value is 0.0205.

For RRIRQRPPRLPRPRPRPMHQPRP, the “shrunken log2 fold change” value was -0.195.

Consider RRIRMRPPRLPRPRPRPIIGPRP, for which the “shrunken log2 fold change” value is -0.00776.

For the sequence RRIRQRPPRLPRPRPRPYQSPRP, the “shrunken log2 fold change” value is -0.176.

Take RRIRDRPPRLPRPRPRPVMKPRP: the “shrunken log2 fold change” value was -0.0716.

As for RRIRMRPPRLPRPRPRPVEQPRP, the “shrunken log2 fold change” value came out at 0.0366.

Regarding RRIRHRPPRLPRPRPRPFSCPRP, the “shrunken log2 fold change” value is -0.0244.

RRIRSRPPRLPRPRPRPNDEPRP: the “shrunken log2 fold change” value was -0.276.

In the case of RRIRYRPPRLPRPRPRPYVWPRP, the “shrunken log2 fold change” value is -0.389.

Regarding RRIRRRPPRLPRPRPRPSRCPRP, the “shrunken log2 fold change” value was -0.0309.

With RRIRLRPPRLPRPRPRPEQVPRP, the “shrunken log2 fold change” value was -0.117.

For the sequence RRIRPRPPRLPRPRPRPCITPRP, the “shrunken log2 fold change” value was -0.373.

As for RRIRDRPPRLPRPRPRPQDPPRP, the “shrunken log2 fold change” value was -0.213.

For the sequence RRIRGRPPRLPRPRPRPAFFPRP, the “shrunken log2 fold change” value was 0.787.

Consider RRIRPRPPRLPRPRPRPTKNPRP, for which the “shrunken log2 fold change” value was 0.0886.

For RRIRKRPPRLPRPRPRPGVPPRP, the “shrunken log2 fold change” value came out at 0.364.

Take RRIRARPPRLPRPRPRPCKYPRP: the “shrunken log2 fold change” value was -0.201.

As to RRIRGRPPRLPRPRPRPEWPPRP, the “shrunken log2 fold change” value is 1.13.

Turning to RRIRWRPPRLPRPRPRPSMEPRP, the “shrunken log2 fold change” value stood at 0.0397.

Consider RRIRQRPPRLPRPRPRPNMKPRP, for which the “shrunken log2 fold change” value is -0.336.

Regarding RRIRQRPPRLPRPRPRPNKDPRP, the “shrunken log2 fold change” value is -0.665.

As for RRIRRRPPRLPRPRPRPLEYPRP, the “shrunken log2 fold change” value is -0.326.

Regarding RRIRIRPPRLPRPRPRPWGMPRP, the “shrunken log2 fold change” value was 0.0727.

Consider RRIRIRPPRLPRPRPRPKYLPRP, for which the “shrunken log2 fold change” value is -0.437.

RRIRSRPPRLPRPRPRPNFLPRP: the “shrunken log2 fold change” value is -0.304.

Take RRIRSRPPRLPRPRPRPDSCPRP: the “shrunken log2 fold change” value is -0.0234.

Consider RRIRGRPPRLPRPRPRPADDPRP, for which the “shrunken log2 fold change” value turned out to be 0.563.

Turning to RRIRSRPPRLPRPRPRPTLEPRP, the “shrunken log2 fold change” value is 0.474.

For RRIRVRPPRLPRPRPRPKRTPRP, the “shrunken log2 fold change” value amounted to 0.0795.

Turning to RRIRERPPRLPRPRPRPIGCPRP, the “shrunken log2 fold change” value was -0.00631.

With RRIRVRPPRLPRPRPRPDRLPRP, the “shrunken log2 fold change” value was determined as 0.314.

As for RRIRKRPPRLPRPRPRPDYHPRP, the “shrunken log2 fold change” value is -0.244.

Take RRIRGRPPRLPRPRPRPGPWPRP: the “shrunken log2 fold change” value was 0.484.

RRIRFRPPRLPRPRPRPFCIPRP: the “shrunken log2 fold change” value was -0.518.

Regarding RRIRIRPPRLPRPRPRPMHVPRP, the “shrunken log2 fold change” value was -0.00468.

With RRIRLRPPRLPRPRPRPHNCPRP, the “shrunken log2 fold change” value was -0.192.

As for RRIRVRPPRLPRPRPRPCCCPRP, the “shrunken log2 fold change” value is 0.0615.

Regarding RRIRNRPPRLPRPRPRPEHKPRP, the “shrunken log2 fold change” value worked out at 0.00308.

On to RRIRWRPPRLPRPRPRPICCPRP, for which the “shrunken log2 fold change” value was 0.149.

RRIRIRPPRLPRPRPRPWFSPRP: the “shrunken log2 fold change” value is -0.201.

Regarding RRIRRRPPRLPRPRPRPGYNPRP, the “shrunken log2 fold change” value is -0.27.

Turning to RRIRIRPPRLPRPRPRPDYYPRP, the “shrunken log2 fold change” value is -0.155.

For the sequence RRIRERPPRLPRPRPRPDVWPRP, the “shrunken log2 fold change” value was determined as 0.0561.

With RRIRTRPPRLPRPRPRPYPIPRP, the “shrunken log2 fold change” value was 0.00205.

For the sequence RRIRWRPPRLPRPRPRPKFKPRP, the “shrunken log2 fold change” value was -0.00802.

With RRIRDRPPRLPRPRPRPNHKPRP, the “shrunken log2 fold change” value was -0.661.

On to RRIRLRPPRLPRPRPRPVMLPRP, for which the “shrunken log2 fold change” value is -0.495.

In the case of RRIRQRPPRLPRPRPRPWYDPRP, the “shrunken log2 fold change” value is -0.138.

Consider RRIRPRPPRLPRPRPRPTYSPRP, for which the “shrunken log2 fold change” value was -0.104.

For RRIRYRPPRLPRPRPRPAEQPRP, the “shrunken log2 fold change” value was 0.0374.

On to RRIRHRPPRLPRPRPRPKSDPRP, for which the “shrunken log2 fold change” value is -0.255.

As for RRIRGRPPRLPRPRPRPKASPRP, the “shrunken log2 fold change” value amounted to 0.234.

Consider RRIRPRPPRLPRPRPRPSTTPRP, for which the “shrunken log2 fold change” value was -0.326.

RRIRERPPRLPRPRPRPAGHPRP: the “shrunken log2 fold change” value is 0.0849.

Turning to RRIRWRPPRLPRPRPRPCDPPRP, the “shrunken log2 fold change” value turned out to be 0.0863.

For RRIRARPPRLPRPRPRPAWHPRP, the “shrunken log2 fold change” value came out at 0.159.

For RRIRGRPPRLPRPRPRPEEYPRP, the “shrunken log2 fold change” value came to 0.0595.

Take RRIRMRPPRLPRPRPRPHCIPRP: the “shrunken log2 fold change” value is -0.0281.

With RRIRCRPPRLPRPRPRPQRDPRP, the “shrunken log2 fold change” value is -0.304.

With RRIRHRPPRLPRPRPRPMSGPRP, the “shrunken log2 fold change” value is -0.0285.

With RRIRCRPPRLPRPRPRPRGSPRP, the “shrunken log2 fold change” value turned out to be 0.511.

As to RRIRCRPPRLPRPRPRPMIIPRP, the “shrunken log2 fold change” value is -0.18.

On to RRIRRRPPRLPRPRPRPPQTPRP, for which the “shrunken log2 fold change” value stood at 0.828.

As to RRIRDRPPRLPRPRPRPNDIPRP, the “shrunken log2 fold change” value is -0.211.

In the case of RRIRGRPPRLPRPRPRPYKVPRP, the “shrunken log2 fold change” value was -0.0404.

For the sequence RRIRGRPPRLPRPRPRPDKGPRP, the “shrunken log2 fold change” value is 0.00725.

In the case of RRIRQRPPRLPRPRPRPCYHPRP, the “shrunken log2 fold change” value is -0.947.

With RRIRIRPPRLPRPRPRPKWQPRP, the “shrunken log2 fold change” value is -0.114.

For RRIRLRPPRLPRPRPRPKCKPRP, the “shrunken log2 fold change” value was -0.223.

In the case of RRIRDRPPRLPRPRPRPWWLPRP, the “shrunken log2 fold change” value was determined as 0.0758.

Consider RRIRGRPPRLPRPRPRPCGRPRP, for which the “shrunken log2 fold change” value was determined as 0.799.

On to RRIRLRPPRLPRPRPRPINGPRP, for which the “shrunken log2 fold change” value was 0.015.

As for RRIRDRPPRLPRPRPRPRFYPRP, the “shrunken log2 fold change” value turned out to be 0.386.

On to RRIRPRPPRLPRPRPRPQMKPRP, for which the “shrunken log2 fold change” value was -0.151.

On to RRIRTRPPRLPRPRPRPFQKPRP, for which the “shrunken log2 fold change” value was -0.0018.

For RRIRWRPPRLPRPRPRPHVEPRP, the “shrunken log2 fold change” value was -0.042.

Turning to RRIRWRPPRLPRPRPRPLLQPRP, the “shrunken log2 fold change” value came out at 0.2.

RRIRTRPPRLPRPRPRPVMYPRP: the “shrunken log2 fold change” value came out at 0.0131.

Regarding RRIRKRPPRLPRPRPRPYLFPRP, the “shrunken log2 fold change” value is -0.0275.

In the case of RRIRARPPRLPRPRPRPICGPRP, the “shrunken log2 fold change” value is 0.248.

RRIRGRPPRLPRPRPRPMRRPRP: the “shrunken log2 fold change” value was 1.25.

With RRIRMRPPRLPRPRPRPKRQPRP, the “shrunken log2 fold change” value came to 0.0602.

Turning to RRIRARPPRLPRPRPRPDNKPRP, the “shrunken log2 fold change” value is -0.24.

For RRIRLRPPRLPRPRPRPYKDPRP, the “shrunken log2 fold change” value was -0.269.

As for RRIRNRPPRLPRPRPRPDLCPRP, the “shrunken log2 fold change” value is -0.0418.

Take RRIRSRPPRLPRPRPRPCYMPRP: the “shrunken log2 fold change” value is -0.562.

Consider RRIRKRPPRLPRPRPRPGKIPRP, for which the “shrunken log2 fold change” value was 0.494.

In the case of RRIRSRPPRLPRPRPRPRPWPRP, the “shrunken log2 fold change” value amounted to 0.324.

For RRIRCRPPRLPRPRPRPHMRPRP, the “shrunken log2 fold change” value was 0.0898.

With RRIRERPPRLPRPRPRPSHMPRP, the “shrunken log2 fold change” value is -0.431.

Take RRIRNRPPRLPRPRPRPMVRPRP: the “shrunken log2 fold change” value was 4.1.

In the case of RRIRERPPRLPRPRPRPRHDPRP, the “shrunken log2 fold change” value is -0.328.

With RRIRGRPPRLPRPRPRPAWEPRP, the “shrunken log2 fold change” value is 1.01.

Regarding RRIRDRPPRLPRPRPRPYRHPRP, the “shrunken log2 fold change” value was -0.0137.

Regarding RRIRFRPPRLPRPRPRPELDPRP, the “shrunken log2 fold change” value is 0.0203.

In the case of RRIRIRPPRLPRPRPRPDVFPRP, the “shrunken log2 fold change” value was -0.115.

For RRIRHRPPRLPRPRPRPVHWPRP, the “shrunken log2 fold change” value is 0.0039.

Turning to RRIRWRPPRLPRPRPRPDTWPRP, the “shrunken log2 fold change” value came out at 0.0829.

Consider RRIRYRPPRLPRPRPRPRSEPRP, for which the “shrunken log2 fold change” value is 0.0596.

For the origin of these results see the supplement of paper PMC9112550, “Optimization of the antimicrobial peptide Bac7 by deep mutational scanning” (BMC Biology, 2022).
